{"source": "patent US20130217613A1", "about": "(MARQUETTE UNIVERSITY, published 2013)", "key": {"[1]": {"biological_target": "T1, His-tagged human Dpy-30 protein (full length) (human, UniProt Q9C005 1-99)", "T1 construct": "range 1-99; also called His-Dpy-30; HDpy-30; not shown: His tag and vector-encoded residues of pET-28a", "assay": "Ni-NTA pulldown of co-expressed proteins, GST western blot"}, "[2]": {"biological_target": "T2, His-tagged human Dpy-30 domain only (Dpy-30 45-99) (human, UniProt Q9C005 45-99)", "T2 construct": "range 45-99; also called the Dpy-30 domain; Dpy-30 domain alone; not shown: His tag and vector-encoded residues of pET-28a", "T2 sequence (Q9C005 45-99)": "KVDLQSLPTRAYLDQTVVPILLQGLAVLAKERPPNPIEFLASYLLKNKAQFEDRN", "assay": "Ni-NTA pulldown of co-expressed proteins, GST western blot"}}, "data": [{"binder": "PWLKEQAIGYLARGVVARRVPDKLVEDAAAALAANRS (other, also called pRSP3V300P product; not shown: N-terminal GST tag (from pGEX-2T) and its junction)", "note": "[GST-tagged RSP3 280-316 with V300P mutation]", "values": [{"measurement": "binding result", "setting": "[1]", "result": "no binding"}, {"measurement": "binding result", "setting": "[2]", "result": "no binding"}]}]}
